From the supplement of paper PMC6755084

B1: minF1; the commonest letter at each place (parent)
chain: GAGACCGCAACTGAAAAGTTGTTATCAGAAATGGATGGGTTGAATTTCTGCACGTAGAAGCAAAAGGC

Variants of: B1
Assay: fraction ligated after 30 min (ligated reads / total reads); higher = more ligase activity
Settings: with F1*subA RNA substrate (template-directed ligation), 42 °C
Description: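 Chip-synthesised pool of minF1 ligase ribozyme variants (single and double substitutions, single to quadruple deletions, bulge and P2 designed variants) was transcribed with T7 and reacted as a pool with excess substrate F1*subA for 30 min at 42 C in 50 mM EPPS pH 8.5, 25 mM MgCl2. Ligated and unligated RNAs were separated by PAGE, barcoded by RT and deep sequenced; fraction ligated = ligated reads / total reads, relative activity = FL / FL of wild-type minF1 (0.76); sequencing FL correlated with PAGE (R2 = 0.98). Sequences are the DNA template of the ribozyme.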

Variant | fraction ligated
T25A A30T | 0.0158
T25A A31C | 0.00883
T25A A31G | 0.0139
T25A A31T | 0.00708
T25A A35C | 0.0123
T25A A35G | 0.0048
T25A A35T | 0.458
T25A A43C | 0.00284
T25A A43G | 0.00383
T25A A43T | 0.00628
T25A A44C | 0.00273
T25A A44G | 0.00172
T25A A44T | 0.0103
T25A C26A | 0.00271
T25A C26G | 0.00462
T25A C26T | 0.00642
T25A G28A | 0.011
T25A G28C | 0.00741
T25A G28T | 0.0157
T25A G33A | 0.0105
T25A G33C | 0.00366
T25A G33T | 0.00763
T25A G34A | 0.00806
T25A G34C | 0.0033

Variant | fraction ligated
T25A G34T | 0.00319
T25A G37A | 0.00183
T25A G37C | 0.00598
T25A G37T | 0.00505
T25A G42A | 0.00144
T25A G42C | 0.00199
T25A G42T | 0.00246
T25A T32A | 0.00329
T25A T32C | 0.00391
T25A T32G | 0.00199
T25A T36A | 0.00698
T25A T36C | 0.00785
T25A T36G | 0.0106
T25C | 0.0278
T25C A27C | 0.113
T25C A27G | 0.209
T25C A27T | 0.407
T25C A29C | 0.0251
T25C A29G | 0.0416
T25C A29T | 0.0467
T25C A30C | 0.081
T25C A30G | 0.0308
T25C A30T | 0.0786
T25C A31C | 0.0548

Variant | fraction ligated
T25C A31G | 0.057
T25C A31T | 0.0613
T25C A35C | 0.00531
T25C A35G | 0.0463
T25C A35T | 0.009
T25C A43C | 0.0068
T25C A43G | 0.00741
T25C A43T | 0.00508
T25C A44C | 0.00738
T25C A44G | 0.0106
T25C A44T | 0.0143
T25C C26A | 0.00962
T25C C26G | 0.00975
T25C C26T | 0.079
T25C G28A | 0.15
T25C G28C | 0.165
T25C G28T | 0.207
T25C G33A | 0.0508
T25C G33C | 0.0119
T25C G33T | 0.0306
T25C G34A | 0.00778
T25C G34C | 0.00188
T25C G34T | 0.00336
T25C G37A | 0.00575

Variant | fraction ligated
T25C G37C | 0.00302
T25C G37T | 0.00523
T25C G42A | 0.00331
T25C G42C | 0.00383
T25C G42T | 0.00269
T25C T32A | 0.00778
T25C T32C | 0.00341
T25C T32G | 0.00219
T25C T36A | 0.0394
T25C T36C | 0.00974
T25C T36G | 0.0541
T25G | 0.0165
T25G A27C | 0.0754
T25G A27G | 0.0208
T25G A27T | 0.0947
T25G A29C | 0.0105
T25G A29G | 0.0196
T25G A29T | 0.0188
T25G A30C | 0.0106
T25G A30G | 0.0222
T25G A30T | 0.0162
T25G A31C | 0.0154
T25G A31G | 0.0115
T25G A31T | 0.0111

Variant | fraction ligated
T25G A35C | 0.845
T25G A35G | 0.00379
T25G A35T | 0.396
T25G A43C | 0.00324
T25G A43G | 0.00372
T25G A43T | 0.00824
T25G A44C | 0.00312
T25G A44G | 0.00956
T25G A44T | 0.00667
T25G C26A | 0.00653
T25G C26G | 0.00725
T25G C26T | 0.00381
T25G G28A | 0.0158
T25G G28C | 0.0182
T25G G28T | 0.0241
T25G G33A | 0.0162
T25G G33C | 0.00397
T25G G33T | 0.0188
T25G G34A | 0.00816
T25G G34C | 0.00366
T25G G34T | 0.0038
T25G G37A | 0.00178
T25G G37C | 0.00475
T25G G37T | 0.00311

Variant | fraction ligated
T25G G42A | 0.00421
T25G G42C | 0.004
T25G G42T | 0.000854
T25G T32A | 0.00223
T25G T32C | 0.00349
T25G T32G | 0.00886
T25G T36A | 0.0107
T25G T36C | 0.00768
T25G T36G | 0.0257
C26A | 0.121
C26A A27C | 0.134
C26A A27G | 0.481
C26A A27T | 0.0953
C26A A29C | 0.0944
C26A A29G | 0.0844
C26A A29T | 0.112
C26A A30C | 0.0463
C26A A30G | 0.216
C26A A30T | 0.0695
C26A A31C | 0.0417
C26A A31G | 0.102
C26A A31T | 0.0701
C26A A35C | 0.00203
C26A A35G | 0.00416

Variant | fraction ligated
C26A A35T | 0.00429
C26A A43C | 0.00276
C26A A43G | 0.00987
C26A A43T | 0.00633
C26A A44C | 0.0236
C26A A44G | 0.03
C26A A44T | 0.0723
C26A G28A | 0.0578
C26A G28C | 0.0637
C26A G28T | 0.117
C26A G33A | 0.19
C26A G33C | 0.0427
C26A G33T | 0.0279
C26A G34A | 0.0394
C26A G34C | 0.00194
C26A G34T | 0.00758
C26A G37A | 0.00335
C26A G37C | 0.00572
C26A G37T | 0.00569
C26A G42A | 0.00533
C26A G42C | 0.00168
C26A G42T | 0.00182
C26A T32A | 0.00455
